# According to patent US20030083469, “Allosteric control of nuclear hormone receptors” (The Salk Institute for Biological Studies, published 2003):
# B1: UASG x4 (dsDNA)
# DNA 1: CGACGGAGTACTGTCCTCCGAGCT
# DNA 2: AGCTCGGAGGACAGTACTCCGTCG
# Target: GAL4 DBD-RXRalpha LBD (Saccharomyces cerevisiae / Homo sapiens, UniProt P04386;P19793 P04386:1-147,P19793:203-462)
# Experiment: cell_activity; fold response to 100 nM LG69; 4 copies UASG TK-LUC, CV-1 cells
# Conditions: tags: GAL4 DBD (1-147) N-terminal fusion
# Sequence of GAL4 DBD-RXRalpha LBD (P04386 1-147, chain 1 of 2): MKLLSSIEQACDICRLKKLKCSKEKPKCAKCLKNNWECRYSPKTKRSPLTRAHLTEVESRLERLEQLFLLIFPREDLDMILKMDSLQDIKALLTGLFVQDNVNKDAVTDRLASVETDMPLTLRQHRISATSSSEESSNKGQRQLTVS
# Sequence of GAL4 DBD-RXRalpha LBD (P19793 203-462, chain 2 of 2): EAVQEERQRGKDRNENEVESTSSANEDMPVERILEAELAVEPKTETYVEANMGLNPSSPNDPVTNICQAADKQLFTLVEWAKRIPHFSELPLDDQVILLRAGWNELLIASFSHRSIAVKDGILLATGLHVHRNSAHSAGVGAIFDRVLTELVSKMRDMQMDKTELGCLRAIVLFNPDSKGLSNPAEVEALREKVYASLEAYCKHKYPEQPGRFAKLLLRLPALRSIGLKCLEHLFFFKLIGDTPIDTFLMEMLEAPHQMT
binder,measurement,value
B1,activity,69 fold
